# Measurements: patent US20240182596A1 (TUBULIS, published 2024)
# T1: human Napi2b-mCherry on HEK293 cells (human, UniProt O95436 1-690)
# T1 construct: also called Napi2b (SLC34A2); HEK293 cells overexpressing Napi2b
# T1 sequence: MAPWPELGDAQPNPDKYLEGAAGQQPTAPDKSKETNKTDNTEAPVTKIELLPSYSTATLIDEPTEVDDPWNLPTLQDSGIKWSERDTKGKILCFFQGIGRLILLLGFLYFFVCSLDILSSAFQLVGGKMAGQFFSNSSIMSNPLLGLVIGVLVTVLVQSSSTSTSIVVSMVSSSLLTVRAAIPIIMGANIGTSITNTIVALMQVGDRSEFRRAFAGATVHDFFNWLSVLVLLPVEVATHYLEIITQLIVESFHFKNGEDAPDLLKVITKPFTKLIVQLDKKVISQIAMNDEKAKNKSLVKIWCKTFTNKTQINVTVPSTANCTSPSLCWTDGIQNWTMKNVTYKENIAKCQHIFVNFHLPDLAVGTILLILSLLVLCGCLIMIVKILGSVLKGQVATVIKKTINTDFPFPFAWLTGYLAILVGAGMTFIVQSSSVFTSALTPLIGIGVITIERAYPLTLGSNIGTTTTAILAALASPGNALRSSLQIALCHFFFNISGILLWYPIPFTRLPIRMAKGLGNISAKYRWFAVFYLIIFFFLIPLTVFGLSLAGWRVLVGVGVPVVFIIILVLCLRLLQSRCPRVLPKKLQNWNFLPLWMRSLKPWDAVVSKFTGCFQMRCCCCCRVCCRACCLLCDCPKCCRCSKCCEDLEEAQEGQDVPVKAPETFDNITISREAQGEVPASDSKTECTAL
# T2: human NaPi2b on NaPi2b-positive cell lines OVCAR-3 and HCC-78 (human, UniProt O95436 1-690)
# T2 construct: Endogenous protein
# T2 sequence: T1 sequence
# T3: human Napi2a-mCherry on HEK293 cells (human, UniProt Q06495 1-639)
# T3 construct: whole, on cells; also called Napi2a (SLC34A1); not shown: mCherry fusion
# T3 sequence (looked up): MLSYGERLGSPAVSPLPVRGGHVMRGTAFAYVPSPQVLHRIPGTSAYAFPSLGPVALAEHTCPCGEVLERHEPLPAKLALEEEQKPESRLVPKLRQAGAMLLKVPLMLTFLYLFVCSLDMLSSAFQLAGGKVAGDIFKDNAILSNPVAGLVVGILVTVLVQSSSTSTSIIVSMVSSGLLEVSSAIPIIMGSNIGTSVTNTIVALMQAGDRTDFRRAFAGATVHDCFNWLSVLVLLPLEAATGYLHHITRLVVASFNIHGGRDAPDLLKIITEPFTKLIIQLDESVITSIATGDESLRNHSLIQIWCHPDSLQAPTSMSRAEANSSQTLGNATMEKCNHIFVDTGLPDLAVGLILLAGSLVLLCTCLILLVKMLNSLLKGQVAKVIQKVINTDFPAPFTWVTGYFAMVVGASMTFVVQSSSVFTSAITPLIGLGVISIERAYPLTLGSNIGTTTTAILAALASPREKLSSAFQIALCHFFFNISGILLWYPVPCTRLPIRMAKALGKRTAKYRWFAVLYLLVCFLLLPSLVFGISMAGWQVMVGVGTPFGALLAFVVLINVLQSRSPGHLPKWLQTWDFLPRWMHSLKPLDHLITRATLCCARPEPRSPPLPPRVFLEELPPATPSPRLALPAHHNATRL
# B1: AV25 mAb, LALA-silenced (AV25 HC-LALA) (antibody, human IgG1, kappa, L234A L235A)
# heavy: not shown
# light: DIQMTQSPSSLSASVGDRVTITCSASQDIGNFLNWYQQKPGKTVKVLIYYASSLYSGVPSRFSGSGSGTDYTLTISSLQPEDFATYYCQQYSKLPLTFGQGTKLELKRTVAAPSVFIFPPSDEQLKSGTASVVCLLNNFYPREAKVQWKVDNALQSGNSQESVTEQDSKDSTYSLSSTLTLSKADYEKHKVYACEVTHQGLSSPVTKSFNRGEC
# notes: also called unmodified AV25 mAb
# How the values were obtained:
# [1] = molecular target: T1, human Napi2b-mCherry on HEK293 cells; assay: flow cytometry on HEK293 cells expressing human Napi2b-mCherry (panel Napi2b-HEK293), Alexa-dye anti-human IgG H+L secondary antibody, MFI ratio to the non-specific binding control
# [2] = molecular target: T1, human Napi2b-mCherry on HEK293 cells; assay: flow cytometry on HEK293 cells stably expressing human full-length NaPi2b-mCherry, Alexa-dye anti-human IgG H+L secondary antibody, MFI ratio, one-site specific binding fit; the Kd table prints no unit, the concentration axis is in nM; second experiment on human cells, run beside the rat cells of FIG. 3D
# [3] = molecular target: T2, human NaPi2b on NaPi2b-positive cell …; assay: flow cytometry on HCC-78 cells, one-site fit
# [4] = molecular target: T4, recombinant human FcγRI (FcγR-SmBiT, Lumit assay) (human, UniProt P12314 16-292); assay: Lumit FcγRI Binding Immunoassay (Promega), competition with Tracer-LgBiT for FcγRI-SmBiT, falling luminescence means binding, n=1
# T4 construct: Kit reagent (Promega); also called FcγRI (CD64); not shown: SmBiT label of the kit
# T4 sequence (P12314 16-292): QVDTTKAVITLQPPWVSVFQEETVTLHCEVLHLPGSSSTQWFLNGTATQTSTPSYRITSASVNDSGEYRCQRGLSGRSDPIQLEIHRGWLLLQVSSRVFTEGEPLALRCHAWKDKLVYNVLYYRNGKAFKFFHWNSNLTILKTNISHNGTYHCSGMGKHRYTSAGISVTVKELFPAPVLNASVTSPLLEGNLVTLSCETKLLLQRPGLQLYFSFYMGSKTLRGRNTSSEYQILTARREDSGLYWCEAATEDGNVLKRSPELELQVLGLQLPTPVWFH
# [5] = molecular target: T3, human Napi2a-mCherry on HEK293 cells; assay: flow cytometry on HEK293 cells expressing human Napi2a-mCherry (panel Napi2a-HEK293), MFI ratio to the non-specific binding control
binder,measurement,setting,value
B1,EC50 (read off the curve),[1],~0.7 nM
same,Kd,[2],0.609 nM
same,Kd,[3],0.42 mg/L
same,binding result,[4],binds
same,binding result,[5],no binding (tested: 200 nM)
